Assay results published in the supplement of paper PMC6757056.
± gives the standard deviation of the averaged measurements.

B1: library; a variant is named by its letters at N, in order (parent)
chain: GCUGUCACCGGUGUAUUACCCUAGUGGUCGACCGGUCUGAUGAGUCUNNNNNNAGACGAAACAGC

Tests used:
hypoxanthine [1] = variants of: B1; assay: FACS-Seq fitted mean relative fluorescence mCherry/BFP without ligand (log10 relative fluorescence); ligand: hypoxanthine (xanthine aptamer); higher = higher reporter protein expression; settings: HEK293T, ligand present: no
Experimental: (§1)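 Hammerhead (sTRSV) ribozyme switch libraries with a ligand aptamer grafted on stem I and a randomized N4-6 loop II, cloned into the 3' UTR of mCherry and transiently transfected into HEK293T cells; RNA-Seq 72 h post transfection with ligand added 1 h before transfection; RNA read count / plasmid DNA read count normalized to the non-cleaving sTRSVctl (x100), log10; sequences with >100 DNA reads. FACS-Seq: lentiviral library sorted into 6 bins after 48 h ligand, log-normal fit mean of mCherry/BFP scaled to controls. Printed sequences are partial switch sequences.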

hypoxanthine [2] = variants of: B1; assay: normalized RNA/DNA level with ligand (relative to sTRSVctl = 100) (log10 (% of sTRSVctl)); ligand: hypoxanthine (xanthine aptamer); higher = less ribozyme self-cleavage, higher mRNA level; settings: ligand concentration (+) RNA-Seq: 5 mM, HEK293T, reporter: mCherry (pCS4076), ligand present: yes
Experimental: as §1

hypoxanthine [3] = variants of: B1; assay: normalized RNA/DNA level without ligand (relative to sTRSVctl = 100) (log10 (% of sTRSVctl)); ligand: hypoxanthine (xanthine aptamer); higher = less ribozyme self-cleavage, higher mRNA level; settings: HEK293T, reporter: mCherry (pCS4076), ligand present: no
Experimental: as §1

hypoxanthine [4] = variants of: B1; assay: FACS-Seq fitted mean relative fluorescence mCherry/BFP with ligand (log10 relative fluorescence); ligand: hypoxanthine (xanthine aptamer); ligand concentration (+) FACS-Seq: 5 mM; higher = higher reporter protein expression; settings: HEK293T, ligand present: yes
Experimental: as §1

| Variant | FACS-Seq fitted mean (log10) (hypoxanthine [1]) | normalized RNA/DNA level with ligand (log10) (hypoxanthine [2]) | normalized RNA/DNA level without ligand (log10) (hypoxanthine [3]) | FACS-Seq fitted mean (log10) (hypoxanthine [4]) |
| --- | --- | --- | --- | --- |
| AACCUG | 0.131 ± 0.046 | 1.81 ± 0.02 | 1.38 ± 0.028 | 0.4422 ± 0.0015 |
| UAAGCG | -0.442 ± 0.031 | 1.909 ± 0.0091 | 1.6 ± 0.024 | 0.233 ± 0.018 |
| AACGGA | 0.375 ± 0.033 | 1.917 ± 0.01 | 1.62 ± 0.035 | 0.525 ± 0.041 |
| AACGGC | 0.644 ± 0.088 | 1.95 ± 0.02 | 1.816 ± 0.012 | 0.696 ± 0.074 |
| AACGGU | 0.118 ± 0.036 | 1.88 ± 0.034 | 1.577 ± 0.01 | 0.3457 ± 0.0031 |
| AACGGG | 0.0434 ± 0.0087 | 1.83 ± 0.074 | 1.38 ± 0.036 | 0.516 ± 0.021 |
| CACGCU | 0.785 ± 0.049 | 1.93 ± 0.034 | 1.87 ± 0.021 | 0.774 ± 0.079 |
| UAAUAA | 0.267 ± 0.015 | 1.902 ± 0.012 | 1.78 ± 0.023 | 0.321 ± 0.019 |
| UAAUAU | 0.353 ± 0.012 | 1.91 ± 0.061 | 1.796 ± 0.005 | 0.558 ± 0.096 |
| UAAUAG | 0.548 ± 0.036 | 1.874 ± 0.0076 | 1.631 ± 0.014 | 0.666 ± 0.019 |
| AAAUUG | 0.0713 ± 0.0046 | 1.88 ± 0.035 | 1.54 ± 0.049 | 0.431 ± 0.0093 |
| AAAUUU | 0.596 ± 0.082 | 1.95 ± 0.043 | 1.9 ± 0.034 | 0.577 ± 0.029 |
| AAAUUC | 0.489 ± 0.043 | 1.95 ± 0.041 | 1.87 ± 0.033 | 0.603 ± 0.015 |
| AAAUUA | -0.311 ± 0.019 | 1.899 ± 0.016 | 1.83 ± 0.055 | -0.0839 ± 0.038 |
| UACAUG | -0.317 ± 0.071 | 1.93 ± 0.029 | 1.69 ± 0.018 | 0.0659 ± 0.069 |
| AACCGG | 0.0275 ± 0.00055 | 1.877 ± 0.011 | 1.43 ± 0.031 | 0.526 ± 0.015 |
| AACCGA | 0.422 ± 0.041 | 1.9477 ± 0.0019 | 1.72 ± 0.019 | 0.533 ± 0.044 |
| AACCGU | 0.798 ± 0.12 | 1.889 ± 0.0024 | 1.75 ± 0.057 | 0.637 ± 0.047 |
| AACCGC | -0.101 ± 0.015 | 1.916 ± 0.014 | 1.79 ± 0.036 | 0.124 ± 0.016 |
| UACAAU | 0.702 ± 0.073 | 1.9 ± 0.039 | 1.819 ± 0.0071 | 0.7079 ± 0.0057 |
| UACAAG | 0.335 ± 0.0078 | 1.928 ± 0.011 | 1.58 ± 0.018 | 0.444 ± 0.047 |
| GAAUGG | -0.206 ± 0.053 | 1.76 ± 0.037 | 1.216 ± 0.012 | 0.417 ± 0.012 |
| GAAUGA | 0.481 ± 0.081 | 1.922 ± 0.0024 | 1.66 ± 0.057 | 0.688 ± 0.028 |
| GAAUGU | 0.27 ± 0.024 | 1.91 ± 0.022 | 1.718 ± 0.0052 | 0.381 ± 0.07 |

| Variant | FACS-Seq fitted mean (log10) (hypoxanthine [1]) | normalized RNA/DNA level with ligand (log10) (hypoxanthine [2]) | normalized RNA/DNA level without ligand (log10) (hypoxanthine [3]) | FACS-Seq fitted mean (log10) (hypoxanthine [4]) |
| --- | --- | --- | --- | --- |
| GAAUGC | 0.275 ± 0.016 | 1.863 ± 0.014 | 1.53 ± 0.03 | 0.577 ± 0.011 |
| CAAUCC | 0.406 ± 0.038 | 1.97 ± 0.086 | 1.82 ± 0.026 | 0.468 ± 0.05 |
| CACACU | 0.146 ± 0.034 | 1.953 ± 0.0082 | 1.87 ± 0.036 | 0.266 ± 0.0029 |
| UACCGG | 0.141 ± 0.038 | 1.91 ± 0.0042 | 1.63 ± 0.038 | 0.197 ± 0.15 |
| UACCGU | 0.0177 ± 0.0044 | 1.95 ± 0.08 | 1.7185 ± 0.00046 | 0.448 ± 0.028 |
| UACCGA | 0.439 ± 0.021 | 1.91 ± 0.041 | 1.75 ± 0.024 | 0.551 ± 0.044 |
| UACCAG | 0.0403 ± 0.078 | 1.87 ± 0.015 | 1.589 ± 0.0032 | 0.0509 ± 0.085 |
| UACCAA | -0.105 ± 0.11 | 1.92 ± 0.036 | 1.838 ± 0.011 | -0.235 ± 0.035 |
| CAAUAA | 0.566 ± 0.035 | 1.89 ± 0.04 | 1.654 ± 0.0078 | 0.578 ± 0.07 |
| CAAUAC | 0.32 ± 0.022 | 1.93 ± 0.069 | 1.767 ± 0.01 | 0.507 ± 0.0056 |
| AAAGGC | -0.66 ± 0.0082 | 1.91 ± 0.035 | 1.781 ± 0.0092 | -0.684 ± 0.085 |
| AAAGGA | 0.0795 ± 0.041 | 1.9 ± 0.031 | 1.58 ± 0.037 | -0.105 ± 0.2 |
| AAAGGG | 0.0328 ± 0.0085 | 1.753 ± 0.0035 | 1.32 ± 0.073 | 0.292 ± 0.084 |
| AAAGGU | 0.195 ± 0.021 | 1.9 ± 0.054 | 1.61 ± 0.053 | 0.526 ± 0.025 |
| UACCCC | 0.5672 ± 0.0022 | 1.95 ± 0.062 | 1.9 ± 0.064 | 0.523 ± 0.047 |
| GAAUUG | 0.0724 ± 0.04 | 1.81 ± 0.032 | 1.4 ± 0.076 | 0.434 ± 0.011 |
| GAAUUA | 0.374 ± 0.05 | 1.91 ± 0.043 | 1.804 ± 0.012 | 0.557 ± 0.089 |
| GAAUUC | 0.407 ± 0.28 | 1.929 ± 0.0056 | 1.9 ± 0.039 | 0.388 ± 0.089 |
| UACGGA | 0.543 ± 0.045 | 1.927 ± 0.0098 | 1.59 ± 0.03 | 0.703 ± 0.039 |
| UACGGG | 0.0501 ± 0.0033 | 1.928 ± 0.0024 | 1.509 ± 0.013 | 0.553 ± 0.062 |
| UACGGC | 0.35 ± 0.0036 | 1.95 ± 0.0066 | 1.795 ± 0.0028 | 0.542 ± 0.1 |
| GAAUCA | 0.438 ± 0.055 | 1.94 ± 0.065 | 1.809 ± 0.013 | 0.46 ± 0.066 |
| GAAUCG | 0.14 ± 0.0063 | 1.84 ± 0.02 | 1.4 ± 0.053 | 0.439 ± 0.05 |
| GACGAU | 0.412 ± 0.021 | 1.91 ± 0.027 | 1.75 ± 0.023 | 0.672 ± 0.053 |

| Variant | FACS-Seq fitted mean (log10) (hypoxanthine [1]) | normalized RNA/DNA level with ligand (log10) (hypoxanthine [2]) | normalized RNA/DNA level without ligand (log10) (hypoxanthine [3]) | FACS-Seq fitted mean (log10) (hypoxanthine [4]) |
| --- | --- | --- | --- | --- |
| GACGAG | 0.184 ± 0.028 | 1.76 ± 0.056 | 1.31 ± 0.017 | 0.597 ± 0.026 |
| GACGAA | 0.408 ± 0.047 | 1.9 ± 0.056 | 1.7 ± 0.0095 | 0.566 ± 0.012 |
| GACGAC | -0.384 ± 0.063 | 1.9292 ± 0.0013 | 1.67 ± 0.017 | -0.465 ± 0.092 |
| AACAUG | 0.137 ± 0.021 | 1.861 ± 0.0051 | 1.44 ± 0.042 | 0.447 ± 0.013 |
| AACAUA | 0.665 ± 0.084 | 1.89 ± 0.021 | 1.801 ± 0.018 | 0.63 ± 0.035 |
| GACCCU | -0.308 ± 0.41 | 1.99 ± 0.023 | 1.972 ± 0.0096 | 0.1808 ± 0.00023 |
| GACCCC | 0.0047 ± 0.072 | 1.94 ± 0.019 | 1.87 ± 0.038 | 0.161 ± 0.06 |
| GACCCG | 0.0296 ± 0.027 | 1.89 ± 0.022 | 1.632 ± 0.016 | 0.292 ± 0.047 |
| UAAGGA | 0.215 ± 0.031 | 1.88 ± 0.041 | 1.608 ± 0.0063 | 0.472 ± 0.057 |
| UAAGGU | 0.356 ± 0.021 | 1.94 ± 0.042 | 1.53 ± 0.027 | 0.602 ± 0.06 |
| UAAGGG | 0.3343 ± 0.00083 | 1.878 ± 0.013 | 1.4441 ± 0.0011 | 0.519 ± 0.015 |
| AACCCA | 0.217 ± 0.063 | 1.92 ± 0.022 | 1.85 ± 0.042 | 0.245 ± 0.0026 |
| AACCCG | 0.577 ± 0.077 | 1.84 ± 0.088 | 1.378 ± 0.013 | 0.751 ± 0.043 |
| GACAAA | 0.0314 ± 0.035 | 1.91 ± 0.058 | 1.774 ± 0.011 | 0.0426 ± 0.012 |
| GAAGUG | -0.0452 ± 0.0093 | 1.8 ± 0.024 | 1.276 ± 0.012 | 0.468 ± 0.037 |
| GAAGUU | -0.155 ± 0.12 | 1.966 ± 0.0047 | 1.831 ± 0.008 | -0.587 ± 0.17 |
| AACAAG | 0.124 ± 0.013 | 1.85 ± 0.051 | 1.41 ± 0.098 | 0.462 ± 0.033 |
| AACAAU | 0.434 ± 0.044 | 1.89 ± 0.023 | 1.74 ± 0.042 | 0.249 ± 0.16 |
| CAAGUC | 0.736 ± 0.067 | 1.95 ± 0.069 | 1.921 ± 0.018 | 0.635 ± 0.04 |
| UAAUCG | -0.0742 ± 0.028 | 1.93 ± 0.021 | 1.633 ± 0.014 | 0.247 ± 0.059 |
| UAAUCU | 0.5653 ± 0.0022 | 1.96 ± 0.043 | 1.87 ± 0.061 | 0.561 ± 0.067 |
| CAAUUA | 0.8094 ± 0.0076 | 1.89 ± 0.049 | 1.728 ± 0.0045 | 0.753 ± 0.03 |
| CAAUUU | -0.039 ± 0.03 | 1.932 ± 0.015 | 1.83 ± 0.034 | 0.406 ± 0.03 |
